Values belong to the molecule of their own block, whether it stands above or below them.
Columns and labels:
FLAG-GST-fused RelA [1] = target: T1, FLAG-GST-fused RelA (UniProt Q04206 1-551); assay: proximity-biotinylation bead array, streptavidin-HRP luminescence; labeling 37°C 24 h; exposure 10 min
T1 construct: Immobilized on glutathione magnetic beads on the non-denatured protein array; Order of the parts follows the printed name FLAG-GST; also called FLAG-GST-fused immobilized substance (RelA); not shown: FLAG tag protein; GST protein (glutathione S-transferase tag)
T1 sequence (Q04206 other isoform, or with tags, fused parts or gaps): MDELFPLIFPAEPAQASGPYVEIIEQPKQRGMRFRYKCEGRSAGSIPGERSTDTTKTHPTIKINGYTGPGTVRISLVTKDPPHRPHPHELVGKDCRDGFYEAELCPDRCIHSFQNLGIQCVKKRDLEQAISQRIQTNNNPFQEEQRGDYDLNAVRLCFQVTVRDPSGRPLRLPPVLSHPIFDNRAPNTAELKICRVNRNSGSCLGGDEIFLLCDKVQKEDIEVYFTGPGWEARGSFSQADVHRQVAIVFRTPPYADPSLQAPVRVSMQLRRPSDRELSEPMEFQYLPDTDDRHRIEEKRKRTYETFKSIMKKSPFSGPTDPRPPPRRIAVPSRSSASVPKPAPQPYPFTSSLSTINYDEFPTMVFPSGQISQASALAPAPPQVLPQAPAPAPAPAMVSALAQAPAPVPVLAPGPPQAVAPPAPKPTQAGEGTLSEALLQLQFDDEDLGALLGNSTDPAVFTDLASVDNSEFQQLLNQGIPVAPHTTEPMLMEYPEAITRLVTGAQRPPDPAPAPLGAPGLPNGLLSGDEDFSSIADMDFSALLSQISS

CRBN and SALL4 [2] = target: T2, CRBN and SALL4 (Homo sapiens, UniProt Q96SW2); settings: stated as known; cited from earlier work
T2 sequence (as listed by the source): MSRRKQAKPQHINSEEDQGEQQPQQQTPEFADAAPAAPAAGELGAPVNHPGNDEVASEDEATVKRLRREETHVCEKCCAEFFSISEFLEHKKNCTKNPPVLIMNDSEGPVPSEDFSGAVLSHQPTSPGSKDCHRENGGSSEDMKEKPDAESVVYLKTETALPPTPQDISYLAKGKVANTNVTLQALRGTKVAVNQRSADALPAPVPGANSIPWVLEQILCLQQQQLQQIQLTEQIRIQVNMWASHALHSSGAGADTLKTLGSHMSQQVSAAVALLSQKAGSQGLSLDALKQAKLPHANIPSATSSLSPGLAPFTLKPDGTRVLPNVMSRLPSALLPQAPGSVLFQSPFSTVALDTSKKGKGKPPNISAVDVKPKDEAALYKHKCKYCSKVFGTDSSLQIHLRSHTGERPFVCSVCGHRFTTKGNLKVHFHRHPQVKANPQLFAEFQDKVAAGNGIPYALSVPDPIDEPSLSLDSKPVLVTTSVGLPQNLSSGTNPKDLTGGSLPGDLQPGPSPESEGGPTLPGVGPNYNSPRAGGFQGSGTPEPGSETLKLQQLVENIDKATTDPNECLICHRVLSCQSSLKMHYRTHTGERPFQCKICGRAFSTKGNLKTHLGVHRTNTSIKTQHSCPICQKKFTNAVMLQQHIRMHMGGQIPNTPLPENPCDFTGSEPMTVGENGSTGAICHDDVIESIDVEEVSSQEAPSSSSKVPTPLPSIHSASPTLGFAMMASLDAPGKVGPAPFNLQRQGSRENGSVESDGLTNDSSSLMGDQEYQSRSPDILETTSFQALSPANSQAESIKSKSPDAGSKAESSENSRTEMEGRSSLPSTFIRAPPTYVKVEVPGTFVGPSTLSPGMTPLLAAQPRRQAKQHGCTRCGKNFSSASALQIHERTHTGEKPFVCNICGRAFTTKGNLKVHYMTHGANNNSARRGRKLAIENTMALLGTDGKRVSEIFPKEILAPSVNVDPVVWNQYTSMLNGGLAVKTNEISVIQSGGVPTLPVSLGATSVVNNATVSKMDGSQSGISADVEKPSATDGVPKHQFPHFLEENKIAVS
T2 sequence (Q96SW2 whole entry): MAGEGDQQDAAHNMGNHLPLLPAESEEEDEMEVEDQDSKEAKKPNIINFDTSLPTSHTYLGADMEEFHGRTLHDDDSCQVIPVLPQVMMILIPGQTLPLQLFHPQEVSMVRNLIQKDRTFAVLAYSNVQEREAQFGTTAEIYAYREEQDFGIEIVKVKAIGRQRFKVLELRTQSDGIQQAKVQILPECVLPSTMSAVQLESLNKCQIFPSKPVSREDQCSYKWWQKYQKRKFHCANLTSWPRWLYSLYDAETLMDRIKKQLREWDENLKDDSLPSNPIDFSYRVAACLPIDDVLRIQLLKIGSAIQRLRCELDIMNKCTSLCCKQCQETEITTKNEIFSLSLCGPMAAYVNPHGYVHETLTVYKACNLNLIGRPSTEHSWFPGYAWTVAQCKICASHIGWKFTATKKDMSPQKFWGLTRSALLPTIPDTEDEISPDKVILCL

CRBN and SALL4 [3] = target: CRBN and SALL4 (Homo sapiens, UniProt Q96SW2, W386A/Y384A); settings: mutant CRBN having a mutation in its binding site for the compound
Sequence of CRBN and SALL4 (Homo sapiens, UniProt Q96SW2, W386A/Y384A) (Q96SW2 whole entry Y384A/W386A): as the sequence (Q96SW2 whole entry) above, with Y384A, W386A counted along it
Method: (§1) In this Example, an interaction between proteins known to bind to each other, CRBN (SEQ ID NO: 7) and IKZF1 (SEQ ID NO: 6) or SALL4 (SEQ ID NO: 9), was analyzed. […] In view of this, the compound (thalidomide derivative) was added to a buffer to be used for a reaction to analyze how CRBN interacted with IKZF1 or SALL4 in a compound-dependent (binding recruiter) manner. The flow of this Example is illustrated in FIG. 3.
(§2) As a substance to be analyzed (protein), template DNA in which CRBN was fused to AirID and template DNA in which a mutant CRBN (SEQ ID NO: 8) having a mutation introduced into its binding site for the thalidomide derivative was fused to AirID were synthesized. As an immobilized substance (protein), template DNA was synthesized by fusing IKZF1, SALL4, or Venus (control) for comparison to a FLAG™ tag protein and a GST protein.
(§3) The synthesized template DNAs were used to synthesize AirID-fused substances to be analyzed and FLAG™-GST-fused immobilized substances through use of a wheat cell-free expression system.
(§4) The FLAG™-GST-fused immobilized substance (IKZF1, SALL4, or Venus) was bound to glutathione magnetic beads, followed by purification. The magnetic beads after the purification were dispensed and arranged on the wells of the plate, and immobilized by the magnetic force of the magnet plate.
(§5) The AirID-fused substance to be analyzed (CRBN or mutant CRBN) diluted with a reaction buffer containing biotin and ATP was allowed to react with the FLAG™-GST-fused immobilized substance (IKZF1, SALL4, or Venus) on the magnetic beads to perform biotin labeling of the FLAG™-GST-fused immobilized substance.
(§6) In order to remove the AirID-fused substance to be analyzed that was free in the reaction buffer or adsorbed onto the magnetic beads, the reaction buffer was removed and then washing was performed a plurality of times with a washing buffer.

CRBN and IKZF1 [4] = target: T3, CRBN and IKZF1 (Homo sapiens, UniProt Q96SW2); settings: compound added to reaction buffer; AirID-fused CRBN
T3 sequence (Q96SW2 whole entry, the tested form may be a part): as the sequence (Q96SW2 whole entry) above
T3 sequence (as listed by the source): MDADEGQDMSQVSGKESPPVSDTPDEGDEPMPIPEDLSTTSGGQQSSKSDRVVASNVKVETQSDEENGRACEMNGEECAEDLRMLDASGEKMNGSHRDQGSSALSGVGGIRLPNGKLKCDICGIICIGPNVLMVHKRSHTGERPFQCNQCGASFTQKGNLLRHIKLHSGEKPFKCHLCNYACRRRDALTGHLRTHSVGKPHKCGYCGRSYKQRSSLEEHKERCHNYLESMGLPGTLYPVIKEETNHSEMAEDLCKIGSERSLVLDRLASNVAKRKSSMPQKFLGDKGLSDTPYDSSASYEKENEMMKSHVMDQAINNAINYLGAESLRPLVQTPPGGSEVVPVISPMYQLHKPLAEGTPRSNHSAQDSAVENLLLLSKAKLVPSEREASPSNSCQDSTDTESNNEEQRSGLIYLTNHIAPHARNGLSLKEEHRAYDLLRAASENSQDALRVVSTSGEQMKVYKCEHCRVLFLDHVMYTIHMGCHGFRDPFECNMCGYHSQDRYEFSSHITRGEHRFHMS
Method: as §1, §2, §3, §4, §5, §6

CRBN and SALL4 [5] = target: T2, CRBN and SALL4; settings: compound added to reaction buffer; AirID-fused CRBN
Method: as §1, §2, §3, §4, §5, §6

CRBN and IKZF1 [6] = target: CRBN and IKZF1 (Homo sapiens, UniProt Q96SW2, W386A/Y384A); settings: mutant CRBN having a mutation in its binding site for the compound
Sequence of CRBN and IKZF1 (Homo sapiens, UniProt Q96SW2, W386A/Y384A) (Q96SW2 whole entry Y384A/W386A): as the sequence (Q96SW2 whole entry) above, with Y384A, W386A counted along it
Method: as §1, §2, §3, §4, §5, §6

CRBN and IKZF1 [7] = target: T3, CRBN and IKZF1; settings: stated as known; cited from earlier work
MDM2 = target: T4, MDM2 (Mus musculus, UniProt P23804); assay: AirID proximity-dependent biotin labeling on non-denatured protein array, TP53 and MDM2 (Example 2); type: binding; settings: AirID-fused TP53; FLAG-GST-MDM2 on magnetic beads; HRP-labeled streptavidin
T4 construct: made in house; host or cells: wheat cell-free protein synthesis
T4 sequence (P23804 whole entry, the tested form may be a part): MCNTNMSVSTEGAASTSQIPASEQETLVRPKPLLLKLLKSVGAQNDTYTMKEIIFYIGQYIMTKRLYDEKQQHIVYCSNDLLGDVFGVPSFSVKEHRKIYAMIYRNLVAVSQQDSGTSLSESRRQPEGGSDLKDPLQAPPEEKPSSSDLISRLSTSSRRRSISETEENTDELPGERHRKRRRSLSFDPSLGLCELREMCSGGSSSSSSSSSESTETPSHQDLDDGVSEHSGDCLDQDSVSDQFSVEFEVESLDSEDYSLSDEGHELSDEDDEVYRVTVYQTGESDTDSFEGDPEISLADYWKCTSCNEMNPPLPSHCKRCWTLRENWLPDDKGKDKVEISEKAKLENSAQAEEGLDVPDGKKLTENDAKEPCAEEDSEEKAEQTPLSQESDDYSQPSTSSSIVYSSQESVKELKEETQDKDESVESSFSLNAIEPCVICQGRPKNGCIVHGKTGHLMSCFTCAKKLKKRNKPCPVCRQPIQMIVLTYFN
From the text: (§7) As a substance to be analyzed, template DNA in which TP53 (SEQ ID NO: 4) or Iκβα (SEQ ID NO: 5) was fused to AirID (SEQ ID NO: 3) was synthesized. As an immobilized substance (target protein), template DNA in which MDM2 (SEQ ID NO: 10), RelA (SEQ ID NO: 11), or any one of 10 kinds of proteins (controls) for comparison was fused to a FLAG™ tag protein and a GST protein was synthesized.
(§8) Thus, a non-denatured protein array was produced.

FLAG-GST-fused MDM2 [8] = target: T5, FLAG-GST-fused MDM2 (UniProt P23804 1-489); assay: proximity-biotinylation bead array, streptavidin-HRP luminescence; labeling 26°C 3 h; exposure 3 min; the filing calls the signal on this pair non-specific
T5 construct: Immobilized on glutathione magnetic beads on the non-denatured protein array; Order of the parts follows the printed name FLAG-GST; also called FLAG-GST-fused immobilized substance (MDM2); not shown: FLAG tag protein; GST protein (glutathione S-transferase tag)
T5 sequence (P23804 whole entry, the tested form may be a part): as above

FLAG-GST-fused MDM2 [9] = target: T5, FLAG-GST-fused MDM2; assay: proximity-biotinylation bead array, streptavidin-HRP luminescence; labeling 26°C 1 h; exposure 3 min; the filing calls the signal on this pair non-specific
FLAG-GST-fused MDM2 [10] = target: T5, FLAG-GST-fused MDM2; assay: proximity-biotinylation bead array, streptavidin-HRP luminescence; labeling 26°C 30 min; exposure 3 min; the filing calls the signal on this pair non-specific
FLAG-GST-fused MDM2 [11] = target: T5, FLAG-GST-fused MDM2; assay: proximity-biotinylation bead array, streptavidin-HRP luminescence; labeling 37°C 24 h; exposure 10 min
FLAG-GST-fused RelA [12] = target: T1, FLAG-GST-fused RelA; assay: proximity-biotinylation bead array, streptavidin-HRP luminescence; labeling 26°C 3 h; exposure 3 min; the filing calls the signal on this pair non-specific
FLAG-GST-fused RelA [13] = target: T1, FLAG-GST-fused RelA; assay: proximity-biotinylation bead array, streptavidin-HRP luminescence; labeling 26°C 1 h; exposure 3 min; the filing calls the signal on this pair non-specific
FLAG-GST-fused RelA [14] = target: T1, FLAG-GST-fused RelA; assay: proximity-biotinylation bead array, streptavidin-HRP luminescence; labeling 26°C 30 min; exposure 3 min; the filing calls the signal on this pair non-specific
FLAG-GST-fused MDM2 [15] = target: T5, FLAG-GST-fused MDM2; assay: proximity-biotinylation bead array, streptavidin-HRP luminescence; labeling 26°C 1 h; exposure 10 min
FLAG-GST-fused RelA [16] = target: T1, FLAG-GST-fused RelA; assay: as above
FLAG-GST-fused MDM2 [17] = target: T5, FLAG-GST-fused MDM2; assay: proximity-biotinylation bead array, streptavidin-HRP luminescence; labeling 26°C 3 h; exposure 10 min
FLAG-GST-fused RelA [18] = target: T1, FLAG-GST-fused RelA; assay: as above
RelA = target: T6, RelA (Homo sapiens, UniProt Q04206); assay: AirID proximity-dependent biotin labeling on non-denatured protein array, Iκβα and RelA (Example 2); type: binding; settings: AirID-fused Iκβα; FLAG-GST-RelA on magnetic beads; HRP-labeled streptavidin
T6 construct: made in house; host or cells: wheat cell-free expression system
T6 sequence (Q04206 1-548 isoform Q04206-4): as the sequence (Q04206 other isoform, or with tags, fused parts or gaps) above
From the text: as §7, §8

FLAG-GST-fused MDM2 [19] = target: T5, FLAG-GST-fused MDM2; assay: proximity biotinylation by AirID fusion on bead protein array, streptavidin-HRP luminescence image
Method: The washing buffer was removed, and an HRP-labeled streptavidin solution diluted with the reaction buffer was added and allowed to react with the FLAG™-GST-fused immobilized substance on the magnetic beads. In order to remove free streptavidin, the reaction buffer was removed and then washing was performed a plurality of times with a washing buffer. After the removal of the washing buffer, a chemiluminescence reagent was added and subjected to a reaction. The resultant luminescence was detected with LAS4000 (manufactured by GE Healthcare) to provide measurement images.

FLAG-GST-fused MDM2 [20] = target: T5, FLAG-GST-fused MDM2; assay: proximity-biotinylation bead array, streptavidin-HRP luminescence; labeling 26°C 30 min; exposure 10 min
FLAG-GST-fused RelA [21] = target: T1, FLAG-GST-fused RelA; assay: as above
FLAG-GST-fused MDM2 [22] = target: T5, FLAG-GST-fused MDM2; assay: proximity-biotinylation bead array, streptavidin-HRP luminescence; labeling 26°C; exposure 10 min

Molecule: Nc1cccc2c1C(=O)N(C1CCC(=O)NC1=O)C2=O (stereo not drawn) [Pomalidomide]
effect on binding of CRBN and SALL4 (CRBN and SALL4 [2]): enhance their binding
luminescence intensity of mutant CRBN and SALL4 (CRBN and SALL4 [3]): hardly any increase
luminescence intensity of CRBN and IKZF1 (CRBN and IKZF1 [4]): particularly increased
luminescence intensity of CRBN and SALL4 (CRBN and SALL4 [5]): particularly increased
luminescence intensity of mutant CRBN and IKZF1 (CRBN and IKZF1 [6]): hardly any increase
effect on binding of CRBN and IKZF1 (CRBN and IKZF1 [7]): enhance their binding

Molecule: TP53: TP53 (SEQ ID NO: 4), fused to AirID as substance to be analyzed in Example 2
luminescence (biotin detection) between TP53 and MDM2 (MDM2): recognized

Molecule: TurboID-fused Iκβα
signal value (FLAG-GST-fused MDM2 [8]): > 65000
signal value (FLAG-GST-fused MDM2 [9]): > 65000
signal value (FLAG-GST-fused MDM2 [10]): 7030

B1: AirID-fused Iκβα (other)
chain: MKDNTVPLTLISILADGEFHSGEQLGEQLGMSRAAINKHIKTLRDWGVDVFRVQGKGYCLPEPIQLLDEEKIRQQLDEGSVTVLPVIDSTNQYLLDRLDELTSGDVCIAEYQQAGRGSRGRKWFSPFGANLYLSMYWRLEQGPAAAMGLSLVIGIVMAETLQKLGADGVRVKWPNDLYLNDRKLAGILVEMTGKTGDAAHIVIGAGINLSMREPETDEVDQSWINLQEAGITIDRNQLAARLIKDLRSALRQFEQQGLAPFLSRWEALDNFINRPVKLIIGDREIHGIARGINEQGALLLEQDGVIKPWIGGEISLRSAMFQAAERPQEWAMEGPRDGLKKERLLDDRHDSGLDSMKDEEYEQMVKELQEIRLEPQEVPRSSEPWKQQLTEDGDSFLHLAIIHEEKALTMEVIRQVKGDLAFLNFQNNLQQTPLHLAVITNQPEIAEALLGAGCDPELRDFRGNTPLHLACEQGCLASVGVLTQSCTTPHLHSILKATNYNGHTCLHLASIHGYLGIVELLVSLGADVNAQEPCNGRTALHLAVDLQNPDLVSLLLKCGADVNRVTYQGYSPYQLTWGRPSTRIQQQLGQLTLENLQMLPESEDEESYDTESEFTEFTEDELPYDDCVFGGQRLTL
notes: Fusion made in a wheat cell-free system; also called AirID-fused substance to be analyzed (Iκβα)
signal value (FLAG-GST-fused MDM2 [15]): 690
signal value (FLAG-GST-fused RelA [16]): 28000
signal value (FLAG-GST-fused MDM2 [17]): 520
signal value (FLAG-GST-fused RelA [18]): 48000
luminescence (biotin detection) between Iκβα and RelA (RelA): recognized
binding result (FLAG-GST-fused MDM2 [19]): no binding
signal value (FLAG-GST-fused MDM2 [20]): 370
signal value (FLAG-GST-fused RelA [21]): 7940

Continued, values first:

signal value (FLAG-GST-fused RelA [1]): 1860
Molecule: BioID-fused TP53

signal value (FLAG-GST-fused MDM2 [11]): 4530
Molecule: BioID-fused Iκβα

signal value (FLAG-GST-fused RelA [12]): > 65000
signal value (FLAG-GST-fused RelA [13]): > 65000
signal value (FLAG-GST-fused RelA [14]): 10200
Molecule: TurboID-fused TP53

signal value (FLAG-GST-fused MDM2 [15]): 190
signal value (FLAG-GST-fused RelA [16]): 37500
signal value (FLAG-GST-fused MDM2 [17]): 230
signal value (FLAG-GST-fused RelA [18]): > 65000
signal value (FLAG-GST-fused MDM2 [20]): 120
signal value (FLAG-GST-fused RelA [21]): 10400
binding result (FLAG-GST-fused MDM2 [22]): no binding
B2: AVVA-R118S,Q141R mutant-fused Iκβα (other)
fusion protein: MSEQWSRKREILALLSSGHFVSGEELATQLGISRTAVSKHIAALEEYGVDIYSVKGKGYKLANPISLIDESKLKSAINNRCFYFDEIPSTNGFMLKHAEELKSGDICVAEYQSAGRGSRGRTWVSPYGCHLYFSLYWRFPRGMAQAMGLSLVVACSLVKVLKSFGVDGVGVKWPNDIYLNHKKLAGVLIEMSGQADSECHLVIGIGINMAMSEQQGKKIDQPWSDLSSLTSMPDKTELLIALQKQLKQDLELFEREGLKAFQPRWQEADLFYGKQIKLLMGENQVEGICRGIDEQGAVLLETDDGIQAFIGGEISLRAAMFQAAERPQEWAMEGPRDGLKKERLLDDRHDSGLDSMKDEEYEQMVKELQEIRLEPQEVPRSSEPWKQQLTEDGDSFLHLAIIHEEKALTMEVIRQVKGDLAFLNFQNNLQQTPLHLAVITNQPEIAEALLGAGCDPELRDFRGNTPLHLACEQGCLASVGVLTQSCTTPHLHSILKATNYNGHTCLHLASIHGYLGIVELLVSLGADVNAQEPCNGRTALHLAVDLQNPDLVSLLLKCGADVNRVTYQGYSPYQLTWGRPSTRIQQQLGQLTLENLQMLPESEDEESYDTESEFTEFTEDELPYDDCVFGGQRLTL
